T1: CD70 (Homo sapiens, UniProt P32970)
T1 sequence (P32970 1-193): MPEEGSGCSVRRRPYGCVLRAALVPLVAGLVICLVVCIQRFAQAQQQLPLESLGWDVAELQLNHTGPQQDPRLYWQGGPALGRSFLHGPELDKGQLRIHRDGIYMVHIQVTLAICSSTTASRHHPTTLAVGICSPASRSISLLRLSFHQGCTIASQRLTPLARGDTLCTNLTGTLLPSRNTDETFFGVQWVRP

T2: CD70 expressed on the surface of Daudi lymphoma cells (Homo sapiens, UniProt P32970)
T2 construct: endogenous in cells; host or cells: Daudi (ATCC CCL-213), HuT 78 (TIB-161), Raji (CCL-86), Granta 519 (DSMZ 342)
T2 sequence (P32970 1-193): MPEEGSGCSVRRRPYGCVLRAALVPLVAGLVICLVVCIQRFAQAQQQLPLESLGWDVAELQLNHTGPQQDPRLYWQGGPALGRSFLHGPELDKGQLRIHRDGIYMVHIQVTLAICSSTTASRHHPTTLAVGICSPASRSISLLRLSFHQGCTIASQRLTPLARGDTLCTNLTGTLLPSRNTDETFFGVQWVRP

T3: CD70 on Raji cells (Homo sapiens, UniProt P32970)
T3 construct: endogenous in cells; host or cells: Daudi (ATCC CCL-213), HuT 78 (TIB-161), Raji (CCL-86), Granta 519 (DSMZ 342)
T3 sequence (P32970 1-193): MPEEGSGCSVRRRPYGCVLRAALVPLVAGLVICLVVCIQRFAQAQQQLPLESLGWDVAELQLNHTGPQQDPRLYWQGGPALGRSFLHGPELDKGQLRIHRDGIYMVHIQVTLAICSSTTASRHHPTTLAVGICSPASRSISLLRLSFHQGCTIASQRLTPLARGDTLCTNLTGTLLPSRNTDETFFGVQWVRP


Tests used:
CD70 = molecular target: T1, CD70; assay: Epitope binding experiments using BIAcore
Experimental: Such cross-competing antibodies can be identified based on their ability to cross-compete with 2H5, 10B4, 8B5, 18E7, 69A7, 69A7Y or 1F4 in standard CD70 binding assays. For example, standard ELISA assays can be used in which a recombinant human CD70 protein is immobilized on the plate, one of the antibodies is fluorescently labeled and the ability of non-labeled antibodies to compete off the binding of the labeled antibody is evaluated. Additionally or alternatively, BIAcore analysis can be used to assess the ability of the antibodies to cross-compete.

[1] = molecular target: T2, CD70 expressed on the surface of Daudi lymphoma cells; assay: Flow cytometry binding to Daudi cells; settings: antibody 1 μg/ml
Experimental: Anti-CD70 antibodies were tested for binding to lymphoma cells expressing CD70 on their cell surface by flow cytometry.
The lymphoma cell lines Daudi (ATCC Accession No. CCL-213), HuT 78 (ATCC Accession No. TIB-161) and Raji (ATCC Accession No. CCL-86) were each tested for antibody binding. Binding of the HuMAb 2H5 anti-CD70 human monoclonal antibody was assessed by incubating 1×10^5 cells with 2H5 at a concentration of 1 μg/ml. The cells were washed and binding was detected with a FITC-labeled anti-human IgG Ab. […] Flow cytometric analyses were performed using a FACSCalibur flow cytometry (Becton Dickinson, San Jose, Calif.). The anti-CD70 monoclonal antibody 2H5 bound to the lymphoma cell lines Daudi, HuT 78 and Raji, as measured by the mean fluorescent intensity (MFI) of staining.
The Daudi lymphoma cell line and 786-O renal carcinoma cell were further tested for antibody binding. Binding of the HuMAb 69A7 anti-CD70 human monoclonal antibody was assessed by incubating 2×10^5 cells with 69A7 at a concentration of 1 μg/ml. The cells were washed and binding was detected with a FITC-labeled anti-human IgG Ab. […] The anti-CD70 monoclonal antibody 69A7 bound to the Daudi lymphoma cell line and 786-O renal carcinoma cell line, as measured by the mean fluorescent intensity (MFI) of staining.

CD70 on Raji cells = molecular target: T3, CD70 on Raji cells; assay: Competition FACS assay with FITC-conjugated 69A7 on Raji cells; type: binding; settings: naked antibody 10 μg/ml, then FITC-conjugated 69A7 10 μg/ml
Experimental: A competition FACS assay was carried out to elucidate the binding specificity of 69A7 against 2H5. Raji cells were incubated with either naked 69A7, 2H5, an isotype control antibody or no antibody at a concentration of 10 μg/ml. After wash, the cells were incubated with FITC-conjugated 69A7 at a concentration of 10 μg/ml. The cells were washed and binding was detected with a FITC-labeled anti-human IgG Ab. Flow cytometric analyses were performed using a FACSCalibur flow cytometry (Becton Dickinson, San Jose, Calif.).

IM-9 cells = assay: ADCC fluorescence cytotoxicity assay, IM-9; type: cell-based, human; settings: target to effector ratio 1:50
Experimental: (§1) In this example, a defucosylated and non-defucosylated anti-CD70 monoclonal antibody was tested for the ability to kill CD70+cells in the presence of effector cells via antibody dependent cellular cytotoxicity (ADCC) in a fluorescence cytotoxicity assay
(§2) Human Anti-CD70 monoclonal antibody 2H5 was defucosylated as described above. Human effector cells were prepared from whole blood as follows. Human peripheral blood mononuclear cells were purified from heparinized whole blood by standard Ficoll-paque separation. The cells were resuspended in RPMI1640 media containing 10% FBS (culture media) and 200 U/ml of human IL-2 and incubated overnight at 37° C. The following day, the cells were collected and washed once in culture media and resuspended at 2×10^7 cells/ml. […]
(§3) The CD70+ cell lines ARH-77 (human B lymphoblast leukemia; ATCC Accession No. CRL-1621), MEC-1 (human chronic B cell leukemia; DSMZ Accession No. ACC 497), SU-DHL-6 (human B cell lymphoma, DSMZ Accession No. Acc572), IM-9 (human B lymphoblast; ATCC Accession No. CCL-159) and HuT 78 (human cutaneous lymphocyte lymphoma; ATCC Accession No. TIB-161), were tested for antibody specific ADCC to the defucosylated and non-defucosylated human anti-CD70 monoclonal antibody 2H5 using the Delfia fluorescence emission analysis as follows. […]

MEC-1 cells = assay: ADCC fluorescence cytotoxicity assay, MEC-1; type: cell-based, human; settings: target to effector ratio 1:50
Experimental: as §1, §2, §3

Row | epitope on CD70 (CD70) | binding to Daudi cells (MFI) [1] | blocking of FITC-labeled 69A7 binding (CD70 on Raji cells) | Molecule | ADCC, % specific lysis of IM-9 (IM-9 cells) | ADCC, % specific lysis of MEC-1 (MEC-1 cells)
1 | distinct epitopes | bound | blocked binding | anti-CD70 human monoclonal antibody 69A7 (antibody, V domains shown, Human IgG from hybridoma; also called HuMAb 69A7; FITC-conjugated 69A7) VH: QVQLQESGPGLVKPSETLSLTCTVSGGSVSSDYYYWSWIRQPPGKGLEWLGYIYYSGSTNYNPSLKSRVTISVDTSKNQFSLKLRSVTTADTAVYYCARGDGDYGGNCFDYWGQGTLVTVSS VL: EIVLTQSPATLSLSPGERATLSCRASQSVSSYLAWYQQKPGQAPRLLIFDASNRATGIPARFSGSGSGTDFTLTISSLEPEDFAVYYCQQRSNWPLTFGGGTKVEIK |  | 
2 |  |  |  | 2H5 NF: 2H5 HuMAb lacking fucosyl residues, expressed in CHO cell line Ms704-PF (antibody, V domains shown) VH: QVQLVESGGGVVQPGRSLRLSCAASGFTFSSYIMHWVRQAPGKGLEWVAVISYDGRNKYYADSVKGRFTISRDNSKNTLYLQMNSLRAEDTAVYYCARDTDGYDFDYWGQGTLVTVSS VL: EIVLTQSPATLSLSPGERATLSCRASQSVSSYLAWYQQKPGQAPRLLIYDASNRATGIPARFSGSGSGTDFTLTISSLEPEDFAVYYCQQRTNWPLTFGGGTKVEIK | increased percentage of specific lysis | increased percentage of specific lysis

From patent US20100150950A1, “HUMAN ANTIBODIES THAT BIND CD70 AND USES THEREOF” (Medarex, Inc., priority 2006, published 2010)
